We go through 25 substances from patent US20200339657A1, “PEPTIDES AND COMBINATION THEREOF FOR USE IN THE IMMUNOTHERAPY AGAINST CANCERS” (Immatics Biotechnologies GmbH, priority 2017, published 2020).

Test [1] relates to CD8+ T cells. Put plainly: In vitro immunogenicity: T-cell priming with aAPCs loaded with peptide/MHC and anti-CD28, multimer readout. Format: cell-based, human. The following applies: HLA A*01.
Test [2] deals with HLA-A*01:01 (Homo sapiens, UniProt P04439, A114D/A174V/A182V/D101N/D185E/E176A/E190D/L180R/Q94H/R68K/S129P/T187R/V100A/V91M/W191G). Put plainly: MHC binding assay (UV-ligand exchange, β2m ELISA). The settings on record: peptide exchange yield. Background: In an ELISA, binding on a coated surface is turned into a signal by an enzyme label.
Test [3] concerns the target HLA-B*07:02 (Homo sapiens, UniProt P01889). Put plainly: MHC binding assay (UV-ligand exchange, β2m ELISA). The settings on record: peptide exchange yield, binding to HLA-B*07:02.

Regarding “31 (VTDLEMPHY; listed as Homo sapiens) [compound 31]”, the “Wells positive [%]” value in test [1] is ““+” (<20% = +)”. Moreover, the Peptide exchange entry in test [2] is given as ““++++” (>75% = ++++)”.

As for “256 (LPALPQQLI; listed as Homo sapiens) [compound 256]”, in test [3], the Peptide exchange entry is given as ““+++” (>50 = +++)”.

Regarding “152 (IPSRLLAIL; listed as Homo sapiens) [compound 152]”, the Peptide exchange result in test [3] is reported as ““+++” (>50 = +++)”.

“149 (YPLTGDTRL; listed as Homo sapiens) [compound 149]”: the Peptide exchange result in test [3] is ““++” (>20% = ++)”.

With “162 (MPMISIPRV; listed as Homo sapiens) [compound 162]”, the Peptide exchange result in test [3] is ““++” (>20% = ++)”.

Take “151 (VVHPRTLLL; listed as Homo sapiens) [compound 151]”: the Peptide exchange result in test [3] is ““++” (>20% = ++)”.

For “168 (IPTDKLLVI; listed as Homo sapiens) [compound 168]”, the Peptide exchange result in test [3] is given as ““++” (>20% = ++)”.

With “171 (APKLFAVAF; listed as Homo sapiens) [compound 171]”, in test [3], the Peptide exchange result is given as ““+++” (>50 = +++)”.

As for “28 (LTDYINANY; listed as Homo sapiens) [compound 28]”, in test [1], the “Wells positive [%]” value is on record as ““+” (<20% = +)”. Also, in test [2], the Peptide exchange entry is on record as ““+++” (>50 = +++)”.

For “165 (TPIAKVSEL; listed as Homo sapiens) [compound 165]”, in test [3], the Peptide exchange result is ““+++” (>50 = +++)”.

For the substance “153 (APAAVPSAPA; listed as Homo sapiens) [compound 153]”, the Peptide exchange result in test [3] is ““+++” (>50 = +++)”.

With “154 (GPGTRLSL; listed as Homo sapiens) [compound 154]”, the Peptide exchange result in test [3] is ““++” (>20% = ++)”.

On to “163 (RPASSLRP; listed as Homo sapiens) [compound 163]”, for which the Peptide exchange entry in test [3] is listed as ““++” (>20% = ++)”.

Turning to “169 (FPTEVTPHAF; listed as Homo sapiens) [compound 169]”, in test [3], the Peptide exchange result is on record as ““++” (>20% = ++)”.

With “174 (VPSLQRLML; listed as Homo sapiens) [compound 174]”, the Peptide exchange entry in test [3] is ““+++” (>50 = +++)”.

In the case of “247 (RSDPGGGGLAY; listed as Homo sapiens) [compound 247]”, in test [1], the “Wells positive [%]” value is ““+” (<20% = +)”. Besides, the Peptide exchange entry in test [2] is reported as ““+++” (>50 = +++)”.

As for “245 (ITEKNSGLY; listed as Homo sapiens) [compound 245]”, the “Wells positive [%]” value in test [1] is on record as ““+++” (50%-69% = +++)”. For the same substance, the Peptide exchange result in test [2] was ““+++” (>50 = +++)”.

Consider “33 (FADKIHLAY; listed as Homo sapiens) [compound 33]”, for which the “Wells positive [%]” value in test [1] was ““++” (20%-49% = ++)”. Besides, the Peptide exchange entry in test [2] is recorded as ““++” (>20% = ++)”.

As for “20 (STDEITTRY; listed as Homo sapiens) [compound 20]”, the “Wells positive [%]” value in test [1] is ““+” (<20% = +)”. The Peptide exchange result in test [2] was ““+++” (>50 = +++)”.

Consider “24 (YTHHLFIFY; listed as Homo sapiens) [compound 24]”, for which the “Wells positive [%]” value in test [1] is recorded as ““+” (<20% = +)”. Moreover, the Peptide exchange result in test [2] is ““+” (>10% = +)”.

As for “37 (LTDSFPLKV; listed as Homo sapiens) [compound 37]”, the “Wells positive [%]” value in test [1] is given as ““+++” (50%-69% = +++)”. In addition, the Peptide exchange result in test [2] is “u+++” (>50 = +++)”.

As for “6 (VLDLSTNVY; listed as Homo sapiens) [compound 6]”, in test [1], the “Wells positive [%]” value was ““++” (20%-49% = ++)”. Besides, in test [2], the Peptide exchange entry is on record as ““+++” (>50 = +++)”.

For “14 (YTERDGSAMVY; listed as Homo sapiens) [compound 14]”, in test [2], the Peptide exchange entry is listed as ““+++” (>50 = +++)”.

On to “1 (RSDPVTLDV; listed as Homo sapiens) [compound 1]”, for which, in test [1], the “Wells positive [%]” value is reported as ““++” (20%-49% = ++)”. In test [2], the Peptide exchange result is on record as ““+++” (>50 = +++)”.

As for “26 (EVLDSHIHAY; listed as Homo sapiens) [compound 26]”, the Peptide exchange result in test [2] was ““+” (>10% = +)”.
